Patent publication US20040170969A1 (published 2004)

T1: Flag-epitope-tagged murine Ras-GRF2 (murine, UniProt P70392 1-1189, limits assumed)
T1 construct: Bait; expressed stably (Clone 13, Clone 21) or transiently in human 293 cells; also called Flag-GRF2; FLAG-GRF2
T1 sequence (looked up): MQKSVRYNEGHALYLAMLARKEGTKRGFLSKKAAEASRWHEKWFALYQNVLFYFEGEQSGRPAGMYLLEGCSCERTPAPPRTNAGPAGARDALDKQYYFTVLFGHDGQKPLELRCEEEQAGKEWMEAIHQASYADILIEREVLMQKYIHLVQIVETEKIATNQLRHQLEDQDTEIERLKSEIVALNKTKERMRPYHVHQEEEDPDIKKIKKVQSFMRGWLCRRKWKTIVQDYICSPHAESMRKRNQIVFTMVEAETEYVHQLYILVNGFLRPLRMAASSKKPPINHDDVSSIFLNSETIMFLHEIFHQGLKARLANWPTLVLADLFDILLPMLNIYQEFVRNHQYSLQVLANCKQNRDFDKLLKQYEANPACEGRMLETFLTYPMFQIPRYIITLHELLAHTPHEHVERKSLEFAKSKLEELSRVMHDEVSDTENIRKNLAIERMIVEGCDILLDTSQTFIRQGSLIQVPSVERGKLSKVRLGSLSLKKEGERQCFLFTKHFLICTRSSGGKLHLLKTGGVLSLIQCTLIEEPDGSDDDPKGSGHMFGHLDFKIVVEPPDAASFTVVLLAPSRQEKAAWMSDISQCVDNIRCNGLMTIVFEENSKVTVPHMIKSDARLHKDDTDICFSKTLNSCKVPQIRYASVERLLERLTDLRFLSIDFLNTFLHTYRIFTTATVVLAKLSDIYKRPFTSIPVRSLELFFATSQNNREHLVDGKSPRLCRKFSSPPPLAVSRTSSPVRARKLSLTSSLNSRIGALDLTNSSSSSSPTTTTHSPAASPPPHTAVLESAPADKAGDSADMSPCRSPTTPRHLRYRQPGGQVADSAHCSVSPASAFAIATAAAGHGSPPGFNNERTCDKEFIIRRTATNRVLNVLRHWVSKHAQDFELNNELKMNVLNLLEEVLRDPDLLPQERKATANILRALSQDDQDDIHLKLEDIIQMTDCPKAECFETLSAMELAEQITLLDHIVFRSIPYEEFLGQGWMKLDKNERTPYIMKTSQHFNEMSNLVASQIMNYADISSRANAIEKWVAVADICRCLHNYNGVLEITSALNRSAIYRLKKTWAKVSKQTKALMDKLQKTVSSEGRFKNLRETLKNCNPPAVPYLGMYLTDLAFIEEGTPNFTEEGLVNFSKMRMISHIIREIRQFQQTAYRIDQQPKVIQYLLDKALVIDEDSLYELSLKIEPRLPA

B1: DKFZp434D174.1 (GI 7512558) (other, UniProt P57678 1-1058, looked up)
chain: MDLGPLNICEEMTILHGGFLLAEQLFHPKALAELTKSDWERVGRPIVEALREISSAAAHSQPFAWKKKALIIIWAKVLQPHPVTPSDTETRWQEDLFFSVGNMIPTINHTILFELLKSLEASGLFIQLLMALPTTICHAELERFLEHVTVDTSAEDVAFFLDVWWEVMKHKGHPQDPLLSQFSAMAHKYLPALDEFPHPPKRLRSDPDACPTMPLLAMLLRGLTQIQSRILGPGRKCCALANLADMLTVFALTEDDPQEVSATVYLDKLATVISVWNSDTQNPYHQQALAEKVKEAERDVSLTSLAKLPSETIFVGCEFLHHLLREWGEELQAVLRSSQGTSYDSYRLCDSLTSFSQNATLYLNRTSLSKEDRQVVSELAECVRDFLRKTSTVLKNRALEDITASIAMAVIQQKMDRHMEVCYIFASEKKWAFSDEWVACLGSNRALFRQPDLVLRLLETVIDVSTADRAIPESQIRQVIHLILECYADLSLPGKNKVLAGILRSWGRKGLSEKLLAYVEGFQEDLNTTFNQLTQSASEQGLAKAVASVARLVIVHPEVTVKKMCSLAVVNLGTHKFLAQILTAFPALRFVEEQGPNSSATFMVSCLKETVWMKFSTPKEEKQFLELLNCLMSPVKPQGIPVAALLEPDEVLKEFVLPFLRLDVEEVDLSLRIFIQTLEANACREEYWLQTCSPFPLLFSLCQLLDRFSKYWQLPKEKRCLSLDRKDLAIHILELLCEIVSANAETFSPDVWIKSLSWLHRKLEQLDWTVGLRLKSFFEGHFKCEVPATLFEICKLSEDEWTSQAHPGYGAGTGLLAWMECCCVSSGISERMLSLLVVDVGNPEEVRLFSKGFLVALVQVMPWCSPQEWQRLHQLTRRLLEKQLLHVPYSLEYIQFVPLLNLKPFAQELQLSVLFLRTFQFLCSHSCRDWLPLEGWNHVVKLLCGSLTRLLDSVRAIQAAGPWVQGPEQDLTQEALFVYTQVFCHALHIMAMLHPEVCEPLYVLALETLTCYETLSKTNPSVSSLLQRAHEQRFLKSIAEGIGPEERRQTLLQKMSSF
notes: also called gemin4; gemin 4
B2: protein 4.1 isoB (GI 182074) (other, UniProt P11171-3 1-641, looked up)
chain: MHCKVSLLDDTVYECVVEKHAKGQDLLKRVCEHLNLLEEDYFGLAIWDNATSKTWLDSAKEIKKQVRGVPWNFTFNVKFYPPDPAQLTEDITRYYLCLQLRQDIVAGRLPCSFATLALLGSYTIQSELGDYDPELHGVDYVSDFKLAPNQTKELEEKVMELHKSYRSMTPAQADLEFLENAKKLSMYGVDLHKAKDLEGVDIILGVCSSGLLVYKDKLRINRFPWPKVLKISYKRSSFFIKIRPGEQEQYESTIGFKLPSYRAAKKLWKVCVEHHTFFRLTSTDTIPKSKFLALGSKFRYSGRTQAQTRQASALIDRPAPHFERTASKRASRSLDGAAAVDSADRSPRPTSAPAITQGQVAEGGVLDASAKKTVVPKAQKETVKAEVKKEDEPPEQAEPEPTEAWKVEKTHIEVTVPTSNGDQTQKKRERLDGENIYIRHSNLMLEDLDKSQEEIKKHHASISELKKNFMESVPEPRPSEWDKRLSTHSPFRTLNINGQIPTGEGPPLVKTQTVTISDNANAVKSEIPTKDVPIVHTETKTITYEAAQTDDNSGDLDPGVLLTAQTITSETPSSTTTTQITKTVKGGISETRIEKRIVITGDADIDHDQVLVQAIKEAKEQHPDMSVTKVVVHQETEIADE
notes: also called Erythroid protein 4.1 isoform B
B3: FLAG-Ndr (cells treated with okadaic acid) (enzyme, not shown: small tags and cut ends)
chain: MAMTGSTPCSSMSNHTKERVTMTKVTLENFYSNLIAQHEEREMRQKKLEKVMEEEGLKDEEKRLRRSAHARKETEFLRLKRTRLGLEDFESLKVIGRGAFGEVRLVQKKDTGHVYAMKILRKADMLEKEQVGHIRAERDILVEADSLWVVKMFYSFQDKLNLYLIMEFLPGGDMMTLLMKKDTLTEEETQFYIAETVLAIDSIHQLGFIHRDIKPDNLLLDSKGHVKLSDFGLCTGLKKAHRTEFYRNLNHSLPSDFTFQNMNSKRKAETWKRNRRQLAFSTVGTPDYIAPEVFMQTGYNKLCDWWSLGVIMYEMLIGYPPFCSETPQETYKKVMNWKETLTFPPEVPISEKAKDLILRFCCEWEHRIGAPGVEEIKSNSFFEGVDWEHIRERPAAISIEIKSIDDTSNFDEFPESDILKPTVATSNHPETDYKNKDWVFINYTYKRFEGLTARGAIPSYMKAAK
notes: also called Ndr bait; active Ndr
B4: FLAG-Ndr (K118A) mutant fusion protein (enzyme, not shown: small tags and cut ends)
chain: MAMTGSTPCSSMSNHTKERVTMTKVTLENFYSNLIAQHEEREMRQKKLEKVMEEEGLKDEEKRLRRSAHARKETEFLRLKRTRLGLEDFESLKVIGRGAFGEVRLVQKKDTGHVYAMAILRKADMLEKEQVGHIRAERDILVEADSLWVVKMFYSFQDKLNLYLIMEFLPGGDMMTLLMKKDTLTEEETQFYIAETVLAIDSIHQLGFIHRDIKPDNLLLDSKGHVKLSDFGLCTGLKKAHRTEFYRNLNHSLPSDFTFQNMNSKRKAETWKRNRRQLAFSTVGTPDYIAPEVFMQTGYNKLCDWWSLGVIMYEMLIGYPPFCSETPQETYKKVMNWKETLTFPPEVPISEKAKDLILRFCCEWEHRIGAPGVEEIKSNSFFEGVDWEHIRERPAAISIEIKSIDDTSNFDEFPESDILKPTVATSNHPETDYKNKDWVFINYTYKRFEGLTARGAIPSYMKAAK
notes: also called K118A Ndr
B5: FLAG-PP2C (enzyme, human, UniProt O75688 1-479, looked up, not shown: small tags and cut ends)
chain: MGAFLDKPKTEKHNAHGAGNGLRYGLSSMQGWRVEMEDAHTAVVGIPHGLEDWSFFAVYDGHAGSRVANYCSTHLLEHITTNEDFRAAGKSGSALELSVENVKNGIRTGFLKIDEYMRNFSDLRNGMDRSGSTAVGVMISPKHIYFINCGDSRAVLYRNGQVCFSTQDHKPCNPREKERIQNAGGSVMIQRVNGSLAVSRALGDYDYKCVDGKGPTEQLVSPEPEVYEILRAEEDEFIILACDGIWDVMSNEELCEYVKSRLEVSDDLENVCNWVVDTCLHKGSRDNMSIVLVCFSNAPKVSDEAVKKDSELDKHLESRVEEIMEKSGEEGMPDLAHVMRILSAENIPNLPPGGGLAGKRNVIEAVYSRLNPHRESDGASDEAEESGSQGKLVEALRQMRINHRGNYRQLLEEMLTSYRLAKVEGEESPAEPAATATSSNSDAGNPVTMQESHTESESGLAELDSSNEDAGTKMSGEKI
notes: also called PP2C bait

Key:
[1] = target: T1, Flag-epitope-tagged murine Ras-GRF2; test: anti-FLAG co-IP, MS
[2] = target: B1; test: anti-FLAG co-IP, MS

binding result [1] | binding result [2] | Binder
no binding | – | B1
no binding | – | B2
– | no binding | B3
– | no binding | B4
– | no binding | B5
